One test has as its system DU145 cells. The experiment in a line: MTT assay (cell growth / viability). The test is classed as cell-based, human. As to conditions: 5 days. The protocol: DU145 (1×10^3/well), PC-3 (1×10^3/well) and LNCaP-FGC (1.5×10^3/well) cells were seeded in 96-well plates 24 hours prior to serum starvation. Cells were starved of serum for 24 hours and then incubated in the serum-free medium with or without 12.5 μg/ml leptin for 5 days. 3-(4,5-dimethylthiazol-2-yl)-2,5-diphenyl tetrazolium bromide (MTT) was added to each well to a concentration of 0.5 mg/ml. After 3-hour incubation at 37° C., cells were lysed in 50% dimethylformamide and 20% SDS at 37° C. Optical densities (O.D.) at 550 nm and 670 nm were measured by a plate reader, and differential O.D. between 550 nm and 670 nm (O.D. 550 nm minus O.D. 670 nm) were determined. Each experiment was performed in quadruplicate, and the values are reported as mean±SD.
DU145 (0.5-1.0×10^3/well), PC-3 (0.5-1.0×10^3/well), and LNCaP FGC (0.75-1.5×10^3/well) cells were seeded in 96-well plates 24 hours prior to serum starvation. Cells were starved of serum for 24 hours and then incubated in the serum-free medium with or without cytokine(s), DHT and/or doxorubicin at indicated concentrations for 5 days. MTT was added to each well to a concentration of 0.5 mg/ml. After being incubated at 37° C. for 3 hours, cells were lysed in 50% dimethylformamide and 20% SDS at 37° C. Optical densities (OD) at 550 and 670 nm were measured by a plate reader, and differential OD between 550 and 670 nm (OD 550 minus OD 670 nm) were determined. Each experiment was performed in quadruplicate, and the values were reported as mean±S.D.
Sucrose gradients were set up in 2.2-ml centrifuge tubes (Beckman Coulter, Inc., Fullerton, Calif.) by layering 5, 10, 15 and 20% (w/v) sucrose in velocity sedimentation buffer (10 mM HEPES, pH 8; 125 mM NaCl). Gradients were then equilibrated overnight at 4° C. Twenty micrograms of f-adiponectin in 200 μl of velocity sedimentation buffer containing 5 μl of HMW-Native protein marker kit (GE Healthcare, Piscataway, N.J.) set to 0.5 μg/μl albumin was overlayed onto the sucrose gradients and spun in a Beckman TLS-55 rotor at 55,000 rpm for 5 hours at 4° C. Fractions (150 μl each) were sequentially collected from the top to the bottom; aliquots were removed and used immediately in the MTT assay. The remaining material was stored at −80° C. for Western blot analysis with anti-adiponectin antibody and SDS-PAGE with silver staining. For the MTT assay, DU145 cells (0.5×1 03/well) were serum-starved and incubated in triplicate in 60 μl of the serum-free medium plus 30 μl of each fraction. For Western blot analysis, 0.5 μl of each fraction was electrophoresed on a 10% SDS-polyacrylamide gel and electrotransferred to a polyvinylidene difluoride membrane. The membrane was washed, blocked, and hybridized with the anti-adiponectin antibody. Bands were visualized using a Lumiglo reagent (Cell Signaling Technology, Inc., Beverly, Mass.). For SDS-PAGE, 20 μl of each fraction was electrophoresed on a 10% SDS-polyacrylamide gel, followed by silver staining using the Silver Stain kit (Bio-Rad Laboratories, Inc., Hercules, Calif.) to visualize molecular weight markers.
(In general: Tetrazolium dyes change colour on reduction, which living cells bring about.)

The subject of another test is c-Jun. The experiment in a line: Western blot analysis of c-Jun phosphorylation in human cancer cells. Format: cell-based. The protocol: Eighty-percent confluent prostate cancer cells were starved in the serum-free medium for 24 hours and then treated by 12.5 μg/ml leptin or 10 μg/ml anisomycin for the indicated periods. In some experiments, cells were pretreated with SP600125 prior to cytokine stimulation as described below. Cells were washed twice with cold PBS, harvested by a scraper and centrifuged for 10 minutes at 700×g at 4° C. The pellet was homogenized in the cell lysis buffer (20 mM HEPES, pH 7.9, 300 mM NaCl, 1 mM EDTA, 15% glycerol, 0.5% NP-40, 1 mM Na3VO4, 1 μg/ml leupeptin, 5 μg/ml aprotinin, 1 μg/ml pepstatin and 1 mM PMSF) and incubated at 4° C. with gentle rocking for 30 minutes. This homogenate was centrifuged for 5 minutes at 15,000×g, and the supernatant was saved as a cell lysate and stored at −80° C. until use.
Cell lysates containing 100 μg of protein were electrophoresed on 10% SDS-polyacrylamide gels and electrotransferred to PVDF membranes. Following the supplier's instructions, the membranes were washed, blocked and hybridized with anti-phospho-c-Jun (Ser-63 or Ser-73) polyclonal antibody that specifically recognizes a phosphorylated form of c-Jun. Bands were visualized using a Lumiglo reagent (Cell Signaling Technology Inc.). The membranes were then stripped and re-hybridized with anti-c-Jun antibody that detects both phosphorylated and unphosphorylated forms to normalize sample variations.
SP600125 was dissolved in DMSO to make a stock solution. Eighty-percent confluent prostate cancer cells were serum-starved for 24 hours and pretreated with SP600125 at indicated concentrations for 30 minutes, followed by leptin treatment (12.5 μg/ml): 15 minutes for Western blot analysis or 20 hours for thymidine incorporation assays. DMSO-treated cells were employed as controls.
(§1) Seventy-percent confluent cells were deprived of serum for 24 hours, followed by treatment with 1 μg/ml f- or g-adiponectin or 10 μg/ml anisomycin for indicated periods. After being rinsed with cold phosphate-buffered saline, cells were harvested using a scraper and collected by centrifugation at 700×g for 10 minutes at 4° C. The cell pellets were then homogenized in cell lysis buffer (20 mM HEPES, pH 7.9, 300 mM NaCl, 1 mM Na3VO4, 1 μg/ml leupeptin, 5 μg/ml aprotinin, 1 μg/ml pepstatin, and 1 mM phenylmethylsulfonyl fluoride) and rocked gently for 30 minutes at 4° C. The homogenates were centrifuged at 15,000×g for 5 minutes at 4° C., and the supernatants were saved as cell lysates and stored at −80° C. until use.
Cell lysates (100 μg of protein) were electrophoresed on 10% SDS-polyacrylamide gels and transferred to polyvinylidene difluoride membranes. […]
Background: In western blotting, separated proteins are transferred to a membrane and probed.

For another test, the system named is STAT3. Kind of test: Electromobility shift assay (EMSA) of STAT3 DNA binding. The test is classed as cell-based, human. The protocol:
as §1
The EMSA was performed as described previously (Y. Iwamoto, et al., J. Biol. Chem. 273:18198-18204, 1998). Cell lysates containing 10 μg of protein were subjected to the assay with ^32P-end-labeled, double-stranded oligonucleotide M67-SIE (forward: 5′[…]-3′ and reverse: 5′-[…]-3′) as a probe. The supershift assay was carried out to confirm the STAT3-DNA complex using anti-STAT3 antibody.
(Mobility shift assays separate free from complexed probe on a gel.)

Take “leptin: Recombinant human leptin purchased from R&D Systems; major adipose cytokine”: in the test on DU145 cells (12.5 μg/ml leptin and 100 ng/ml IGF-I, absence of androgen), the “cell growth (MTT), leptin together with IGF-I” value was “stimulated cell growth synergistically”. Besides, the “living cells (MTT)” value in the test with DU145 cells (12.5 μg/ml leptin, serum-free) is listed as “increased living cells”. Further, the “c-Jun phosphorylation on Ser-63 and Ser-73” value with c-Jun (DU145 and PC-3 cells, 12.5 μg/ml leptin) is on record as “stimulated c-Jun phosphorylation”.

B1: f-adiponectin: Recombinant human full-length (non-proteolytic) adiponectin, about 30-kDa polypeptide; lot mainly HMW form (protein, UniProt Q15848 1-244, looked up)
chain: MLLLGAVLLLLALPGHDQETTTQGPGVLLPLPKGACTGWMAGIPGHPGHNGAPGRDGRDGTPGEKGEKGDPGLIGPKGDIGETGVPGAEGPRGFPGIQGRKGEPGEGAYVYRSAFSVGLETYVTIPNMPIRFTKIFYNQQNHYDGSTGKFHCNIPGLYYFAYHITVYMKDVKVSLFKKDKAMLFTYDQYQENNVDQASGSVLLHLEVGDQVWLQVYGEGERNGLYADNDNDSTFTGFLLYHDTN
modifications: full-length
notes: Recombinant human full-length (non-proteolytic) adiponectin, about 30-kDa polypeptide; lot mainly HMW form
B1: the “effect on the leptin and/or IGF-I stimulation of cell growth (MTT)” value with DU145 cells (1 μg/ml f-adiponectin, 12.5 μg/ml leptin and/or 100 ng/ml IGF-I) is listed as “remarkably suppressed”. In the test on DU145 cells (1 μg/ml f-adiponectin), the “effect on the conditioned medium stimulation of cell growth (MTT)” value was “drastically suppressed” and the “effect on the doxorubicin suppression of cell growth (MTT)” value is given as “enhanced the doxorubicin suppression”. The “cell growth (MTT) at concentrations up to 1 μg/ml” value in the test with DU145 cells (serum-free) is listed as “inhibited cell growth in a dose-dependent manner”. For the same molecule, the “concentration at which the inhibitory effect on cell growth saturated” value with DU145 cells (MTT) was determined as 1 µg/mL. In the test on c-Jun (DU145, PC-3, LNCaP-FGC and HepG2 cells, 1.0 μg/ml), the “c-Jun phosphorylation at Ser-63” value is reported as “augmented c-Jun phosphorylation at Ser-63”. Further, in the test on c-Jun (DU145, PC-3 and HepG2 cells, 1.0 μg/ml), the “c-Jun phosphorylation at Ser-73” value is “stimulated Ser-73 phosphorylation”. In the test with c-Jun (LNCaP-FGC cells, 1.0 μg/ml), the “c-Jun phosphorylation at Ser-73” value is given as “quite modest”. Moreover, the “constitutive STAT3 activation (STAT3 DNA binding activity)” value with STAT3 (DU145 and HepG2 cells, 1.0 μg/ml, up to 60 minutes) is listed as “inhibited constitutive STAT3 activation drastically”. Also, the STAT3 activation entry in the test with STAT3 (the other cell lines (PC-3, LNCaP-FGC, C2C12), data not shown) is “Neither f- nor g-adiponectin influenced STAT3 activation”.
